Measurements reported in patent US20240293570A1 (priority 2021, published 2024).
Like-named read-outs stand apart in the source and are kept apart here. *1 amine or outer side, *2 acyl side, *3 side chain or, on linkers, in order; H or OH if unused. Where a SMILES comes first, the peptide text is derived from it. [ ]: non-standard residue; d: D form. The star is where a group is joined. Exatecan = CC[C@@]1(O)C(=O)OCc2c1cc1n(c2=O)Cc2c-1nc1cc(F)c(C)c3c1c2[C@@H](N*)CC3; Propanoyl(3-maleimido) = O=C1C=CC(=O)N1CCC(=O)*; X1 = O=C(CN1CCOCCN([*:1])CCOCC1)[*:2]; NHCH2OCH2CO = O=C(COCN[*:1])[*:2]

Columns and labels:
[1] = assay type: physicochemical; conditions: ADC with Her2 antibody, RP-HPLC-MS
Method in brief: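 ADC at 1 mg/ml reduced with 50 mmol/L DTT in Tris pH 8.0 for 30 min at 37 °C, then light and heavy chains separated by RP-HPLC on a PLRP-S column at 70 °C. Deconvoluted masses assigned drug load per peak; weighted average DAR calculated from UV peak area percentages.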

[2] = test system: breast cancer JIMT-1; assay: In vivo anti-tumor effect, breast cancer JIMT-1 tumor model; parameters: species or system mouse; conditions: JIMT-1 subcutaneous model, FIG. 10
Description: (§1) Tumor cells (ovarian cancer SKOV-3, gastric cancer NCI-N87, and breast cancer JIMT-1) were cultured in a medium and maintained in a 37° C. saturated humidity incubator containing 5% CO2, respectively.
(§2) Tumor cells in a logarithmic growth phase were collected and re-suspended in a basic medium, and the concentration of cells was adjusted to 4×10^7/mL. Under sterile conditions, 0.1 mL of cell suspension was inoculated subcutaneously into the right armpit of a mouse at a concentration of 4×10^6 Cells/0.1 mL/mouse.
(§3) When the tumor volume reached around 200 mm^3, animals were randomly grouped according to the tumor volume, where the difference in tumor volume between the groups was less than 10% of the mean. The grouping day was recorded as Day 0, and administration started according to the body weight of the animals. In the administration period, if the body weight of individual animals decreased by more than 15% compared to that on Day 0 (BWL≥15%), the administration was stopped until the body weight of the animals recovered (BWL<15%), and then the administration recovered.
(§4) During the experiment, the body weight of the animals and the tumor volume were measured 2 times a week, and clinical symptoms of the animals were observed and recorded every day.

[3] = Naked antibody content of antibody-drug conjugates by hydrophobic interaction chromatography (HIC); assay type: physicochemical; conditions: ADC with Her2 antibody
[4] = test system: gastric cancer NCI-N87; assay: In vivo anti-tumor effect, gastric cancer NCI-N87 tumor model; parameters: species or system mouse; conditions: NCI-N87 subcutaneous model, FIG. 10, FIG. 11
Description: as §1, §2, §3, §4

[5] = Polymer (high molecular component) content of antibody-drug conjugates by SE-HPLC; assay type: physicochemical; conditions: ADC with Her2 antibody
Method in brief: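 SE-HPLC on 7.8×300 mm SEC column with 50 mM phosphate, 300 mM NaCl (pH 6.8) mobile phase at 0.5 mL/min; high-molecular-weight content determined by area normalization.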

[6] = Plasma stability of ADCs, generated payload by LC-MS/MS, monkey plasma; assay type: in vitro ADME, monkeys; conditions: 37° C., 100 μg/mL, up to 21 d, FIG. 7-9
Description: (§5) In order to further evaluate the characteristics of ADCs, the plasma stability of ADCs was tested. The plasma stability was tested by the following steps:
(§6) A test sample stock solution was diluted with ultra-pure water into a working solution having a concentration of 2.5 mg/mL. The working solution was prepared as needed and used at room temperature.
(§7) Follow the following steps to test plasma samples: • (1) 980 μL of plasma was collected from blank CD-1 mice, monkeys, and humans (experimental group N=2, control group N=1) and pre-incubated at 37° C. for 5 minutes; • (2) 20 μL of test compound working solution (or positive control drug (payload) working solution) was added, followed by vortex mixing (final concentration of the test compound was 100 μg/mL, and final concentration of the positive control drug was 1 μM). 50 μL of plasma sample was immediately added into 150 μL of ice precipitant, followed by vortex mixing as a 0 h sample; • (3) The remaining plasma samples were sealed and further incubated at 37° C., and 50 μL of each plasma sample was pipetted into 150 μL of ice precipitant according to preset time points in Table 3, followed by vortex mixing; […]
(§8) The samples were analyzed using liquid chromatography-tandem mass spectrometry (LC-MS/MS) to measure the quantity of a generated payload, where the quantities of two payloads were measured for dual toxin ADCs respectively.

[7] = Stability (placement) test of ADCs at 40° C. in dark for 14 days, DAR and polymer content; assay type: physicochemical
Description: Polymers (high molecular components) of the antibody-drug conjugates were tested using molecular exclusion high-performance liquid chromatography (SE-HPLC). A Biocore SEC chromatographic column (7.8×300 mm, […]) was used, and the mobile phase was 50 mM phosphate containing 300 mM sodium chloride (pH 6.8), with a flow rate of 0.5 mL/min. Samples of […] and 10 μl were injected. […] The polymer content of an antibody-drug conjugate was calculated using an area normalization method.
A drug-antibody conjugating ratio (also known as drug-antibody ratio, abbreviated as DAR) of the antibody-drug conjugate was tested using reversed-phase high-performance liquid chromatography-mass chromatography (RP-HPLC-MS). The ADC sample was diluted with 50 mmol/L Tris buffer (pH 8.0) to 1 mg/ml. A fresh dithiothreitol (DTT) stock solution was added to achieve a final DTT concentration of 50 mmol/L. Incubation was performed at 37° C. for 30 minutes. A PLRP-S chromatographic column (1000 Å pores, 2.1×50 mm, 5) μm) was used, and the column temperature was 70° C. The flow rate was 0.25 mL/min. […] of sample was injected; the mobile phase A was an aqueous solution of 0.1% formic acid (V/V) and 0.025% trifluoroacetic acid (V/V), and the mobile phase B was an acetonitrile solution of 0.1% formic acid (V/V) and 0.025% trifluoroacetic acid (V/V); the running time was 0-3 minutes, where 27% of mobile phase B ran for 3 minutes, and the mobile phase B ran from 27% to 49% within 3-25 minutes, from 49% to 95% within 25-26 minutes, at 95% within […], from 95% to 27% within 30-31.5 minutes, and at 27% for 31.5-45 minutes. […] Mass spectrometry drying gas was at a temperature of 350° C. and a flow rate of 7.0 L/min, the pressure of an atomizer was 40 psi, capillary voltage was positive 3000V and negative 3000V, and the mass range was 500-1600 m/z. The molecular weight of each mass spectrometry peak (ranging from 20000 to 70000) was calculated by deconvolution and compared with light and heavy chain molecular weights of un-conjugated antibodies to calculate a drug load at each peak, so as to determine the load of a corresponding ultraviolet peak. Area percentages of heavy and light chain ultraviolet peaks were calculated through integration, and a weighted average DAR of the antibody-drug conjugate was calculated by combining the area percentages with the drug load distribution of each peak.
Stability testing method: The stability of the obtained ADCs was tested for 14 days. The ADCs were placed at 40° C. in dark. Sampling points were days 0, 7, and 14. The polymer content and DAR value of samples at different sampling points were tested according to the method in Experimental Example 1.

[8] = Plasma stability of ADCs, generated payload by LC-MS/MS, human plasma; assay type: in vitro ADME, humans; conditions: 37° C., 100 μg/mL, up to 21 d, FIG. 7-9
Description: as §5, §6, §7, §8

[9] = Plasma stability of ADCs, generated payload by LC-MS/MS, mouse plasma; assay type: in vitro ADME, CD-1 mice; conditions: 37° C., 100 μg/mL, up to 21 d, FIG. 7-9
Description: as §5, §6, §7, §8

| SMILES | DAR [1] | in vivo anti-tumor effect on breast cancer [2] | Naked antibody content (%) [3] | in vivo anti-tumor effect on gastric cancer [4] | Polymer content (%) [5] | stability in the plasma of monkeys [6] | DAR ([7]; Day 0, 40° C. in dark) | Polymer content (%) ([7]; Day 0, 40° C. in dark) | DAR ([7]; Day 7, 40° C. in dark) | Polymer content (%) ([7]; Day 7, 40° C. in dark) | DAR ([7]; Day 14, 40° C. in dark) | Polymer content (%) ([7]; Day 14, 40° C. in dark) | stability in the plasma of humans [8] | stability in the plasma of mice [9] |
| --- | --- | --- | --- | --- | --- | --- | --- | --- | --- | --- | --- | --- | --- | --- |
| C=C1C[C@@H]2CC[C@@]34C[C@H]5OC6C(O[C@H]7CC[C@H](CC(=O)C[C@@H]8[C@@H](OC)[C@@H](C[C@H](O)CNC(=O)CNC(=O)[C@H](Cc9ccccc9)NC(=O)CNC(=O)CNC(=O)CCCCCN9C(=O)C=CC9=O)O[C@H]8C[C@H]8O[C@@H](CC[C@@H]1O2)C[C@@H](C)C8=C)O[C@@H]7[C@@H]6O3)[C@H]5O4 [Comparative Example 4, reference compound] | 3.01 | poor anti-tumor effects | 8.01% | poor anti-tumor effects | 10.73% |  |  |  |  |  |  |  |  |  |
| C=C1C[C@@H]2CC[C@@]34C[C@H]5OC6C(O[C@H]7CC[C@H](CC(=O)C[C@@H]8[C@@H](OC)[C@@H](C[C@H](O)CNC(=O)CNC(=O)[C@H](Cc9ccccc9)NC(=O)CNC(=O)CNC(=O)CCOCCOCCN(CCOCCOCCC(=O)NCC(=O)NCC(=O)N[C@@H](Cc9ccccc9)C(=O)NCC(=O)NCOCC(=O)N[C@H]9CCc%10c(C)c(F)cc%11nc%12c(c9c%10%11)Cn9c-%12cc%10c(c9=O)COC(=O)[C@]%10(O)CC)C(=O)CN9CCOCCOCCOCCOCCN(C(=O)CCOCCOCCOCCOCCC%10C(=O)C=CC%10=O)CCOCCOCCOCCOCC9)O[C@H]8C[C@H]8O[C@@H](CC[C@@H]1O2)C[C@@H](C)C8=C)O[C@@H]7[C@@H]6O3)[C@H]5O4 [Example 13] | 4.02 |  | 5.02% |  | 0.77% | significantly better | 4.02 | 0.77% | 4.02 | 0.78% | 4.04 | 0.91% | significantly better | significantly better |
| CC[C@@]1(O)C(=O)OCc2c1cc1n(c2=O)Cc2c-1nc1cc(F)c(C)c3c1c2[C@@H](NC(=O)COCNC(=O)CNC(=O)[C@H](Cc1ccccc1)NC(=O)CNC(=O)CNC(=O)CN1CCOCCN(C(=O)CCN2C(=O)C=CC2=O)CCOCC1)CC3 [Example 22] ({Propanoyl(3-maleimido)}-[X1]GGFG[NHCH2OCH2CO]-Exatecan) | 4.14 |  | 0.00% |  | 0.76% | significantly better | 4.14 | 0.76% | 4.12 | 0.81% | 4.15 | 0.78% | significantly better | significantly better |
| C=C1C[C@@H]2CC[C@@]34C[C@H]5OC6C(O[C@H]7CC[C@H](CC(=O)C[C@@H]8[C@@H](OC)[C@@H](C[C@H](O)CNC(=O)CNC(=O)[C@H](Cc9ccccc9)NC(=O)CNC(=O)CN9CCOCCOCCN(C(=O)CCCCCN%10C(=O)C=CC%10=O)CCOCCOCC9)O[C@H]8C[C@H]8O[C@@H](CC[C@@H]1O2)C[C@@H](C)C8=C)O[C@@H]7[C@@H]6O3)[C@H]5O4 [Example 40] | 3.78 |  | 4.27% | significantly better | 1.29% |  | 3.78 | 1.29% | 3.75 | 1.31% | 3.74 | 1.41% |  |  |
